± gives the standard deviation of the averaged measurements.
What follows are sequences tested on ATP (assay: switch fluorescence ratio, 500 uM ATP over buffer (Cy3 cluster intensity, sum of 5 cycles each) (fold (ratio)); higher = stronger signal-on switching upon ATP binding; sequences stand for … in TCGTCGGCAGCGTCAGATGTGTATAAGAGACAGTTTTTTTTTTTTTTTTTTTTTTTTT…TC). Conditions: aptamer strand: ATP DNA aptamer (quencher-CACCTGGGGGAGTATTGCGGAGGAAGG + anchor), 100 nM annealed; ATP concentration: 500 uM.
Outline: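 Imaging in selection buffer was followed by imaging after 15 min with 500 uM ATP at 22 °C, for Cy3-labelled switching-strand clusters annealed to 100 nM quencher-labelled ATP aptamer on a modified Illumina MiSeq flow-cell. Five of these buffer/ATP cycles ran, separated by NaOH stripping and re-annealing. The fluorescence ratio per cluster is summed target-cycle over summed buffer-cycle Cy3 intensity, averaged per switch-domain sequence; clusters outside 100-1000 RFU were removed.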
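Note: ATP exposure 15 min at 22 °C before imaging.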

Sequence	switch fluorescence ratio
AAAGTTCGAG	0.99 ± 0.021
AAGAACTATA	1.09 ± 0.023
GTTGTTTGTT	0.978 ± 0.015
CAAAGTTGGT	0.994 ± 0.05
AAAATATACA	1.01 ± 0.027
AACCGGTAAT	1.01 ± 0.022
TATAGTATTG	0.9861 ± 0.0087
AATAATTTAA	0.995 ± 0.021
CTGGGAGGAT	0.98788 ± 0.0003
TTTGCTTAAT	1.02 ± 0.044
TTTTTAAGAC	1.08 ± 0.086
CCTTGCGTTC	2.68 ± 0.19
AACCGTTTTG	0.979 ± 0.011
GCTTTGAATG	1.011 ± 0.005
CCGTTCAGGG	1.001 ± 0.0045
GATCGTTTGT	1.01 ± 0.021
GGGGAAGGT	1.04 ± 0.019
ACTGGGCATG	1.01 ± 0.032
AAGGTAGAAT	0.986 ± 0.013
TGTAACCCAT	1.02 ± 0.061
CAGGTCGTTT	1.032 ± 0.0069
CTCGTTTATC	1.03 ± 0.032
AGAGTCAAGT	0.969 ± 0.017
TTTTTCTATA	0.994 ± 0.066
CGATTTCAGA	1.009 ± 0.01

Sequence	switch fluorescence ratio
TTAGAAGTCA	1.0063 ± 0.00067
CGGCATTAAA	0.995 ± 0.0058
GAGGGACGGC	0.999 ± 0.059
GCGACAGGAC	1.48 ± 0.12
TAGGTGTATG	1.01 ± 0.033
CTAAATATTG	0.989 ± 0.015
TTTCGGTCGT	1.03 ± 0.074
TTAAAGGGTA	0.992 ± 0.054
TGCTAATAGG	1.01 ± 0.02
GGACTAAAAT	1.08 ± 0.13
GGTTAGGATG	0.97 ± 0.025
GGGAAGCCTT	1.028 ± 0.0069
TTTGGGCGCC	1 ± 0.018
CTGATGTAGC	1.21 ± 0.049
GAAGTGCGGT	0.98474 ± 0.00042
AACGTTCCTG	1.35 ± 0.11
GGTTTGGATA	0.985 ± 0.028
TGGATCACGG	1.02 ± 0.0054
AGTGAATGGA	0.991 ± 0.024
ATTCTCTTGT	0.996 ± 0.014
CGGGTATGGA	1.02 ± 0.033
AGGGTTATGT	0.971 ± 0.03
AAAAGGAAT	1.001 ± 0.009
GGCAGATGAA	1.03 ± 0.011
GCTTCCTTGG	1.31 ± 0.079

Sequence	switch fluorescence ratio
ACTCGCGGGT	1.04 ± 0.021
GAGCCCAATG	1.0092 ± 0.001
AGGGCACGGT	0.983 ± 0.036
AGGTTGAAAG	0.974 ± 0.035
TTGTGTAGGC	0.984 ± 0.025
TTTGGGCGCT	1.04 ± 0.048
ACCAAGGGTG	1.135 ± 0.0042
CCGGTTTCGT	1.26 ± 0.26
TGGTGGGGTT	0.984 ± 0.02
TTTGGAGAAA	0.989 ± 0.022
TCGTTTGTAT	0.972 ± 0.005
CGGTTTTTTA	0.964 ± 0.025
TTAGGGTGAA	1.02 ± 0.032
TCGCGTGTTG	1.017 ± 0.0032
GGGGGCCCGT	1.46 ± 0.69
TTAGAAGGG	0.965 ± 0.012
TACAGAATGG	0.991 ± 0.014
TACTGGGCAC	3.22 ± 3
ACGCTGGCGA	1.03 ± 0.021
CTTTGAAAA	1.02 ± 0.02
ATCAATGGGT	0.979 ± 0.025
TCGTTCGTCG	1.04 ± 0.06
CTGGGATGTG	0.98 ± 0.023
AGACTCGCCC	1.12 ± 0.059
GAATATGTGG	1 ± 0.013

Sequence	switch fluorescence ratio
TTAGTCCTTG	0.9914 ± 0.0024
AAGTACGTTA	1.25 ± 0.029
GGAGGAATTT	1.01 ± 0.016
AGGATGGGTG	0.991 ± 0.021
AAAATCTAAT	1.01 ± 0.054
GACTGGCATA	1.097 ± 0.0039
ATAGGGATAG	1.01 ± 0.047
TAGGAAGCGT	0.9777 ± 0.0039
CGATGATGGA	0.999 ± 0.017
TCCCCGTCTG	1.14 ± 0.15
CCGTCGCTTA	2.36 ± 0.37
ATTTTTCTGA	1 ± 0.019
CTGGGTTTCG	0.974 ± 0.042
TTTGTTCGTG	0.96 ± 0.028
ATCAAAGGGG	1 ± 0.0072
GTTGATTATG	0.995 ± 0.014
GTTTGTTTAA	0.981 ± 0.017
TCTGTAAATT	0.991 ± 0.03
GAATCATGTT	0.9915 ± 0.0065
GTGGGGGAA	0.994 ± 0.034
GGGGACAGGG	1.01 ± 0.051
CCGTTATTAG	1.3518 ± 0.0007
CTGGGGGGGA	1.02 ± 0.022
TAAGTATGAC	0.982 ± 0.032
TATATGACTT	1 ± 0.012

From the supplement of paper PMC10126150
